Source: patent US8962819B2, “Anti-C5 alpha antibodies” (Adienne S.A., priority 2002, dated 2015)
Entries after “also recorded” stand apart in the source; their conditions may differ.

Legend:
C5 alpha chain = target: T1, C5 alpha chain (Homo sapiens, UniProt P01031); assay: Immunoblotting on separated C5 chains; assay type: binding; conditions: 100 ng chain, FIG. 2 lane 1
T1 construct: Lane 1: 100 ng of C5 alpha chain; lane 2: 100 ng of beta chain; purchased Quidel
Experimental: The alpha and beta chains of C5 were electrophoretically separated by means of SDS-PAGE in 10% polyacrylamide and then transferred onto nitrocellulose. […] Lane 1: 100 ng of C5 alpha chain; lane 2: 100 ng of beta chain; lane 3: mixture of the two chains. […] It can be seen that scFv TSA-12/22 recognises the alpha chain of C5 in lane 1, but not the beta chain in lane 2.
Purified proteins. Purified components C4 to C9 were purchased from Quidel (Saint Diego, Calif.) and the human recombinant C5a component was purchased from SIGMA-ALDRICH® S.r.1. (Milan, Italy). C5 alpha and beta subunits were obtained by incubating 50 μg of C5 diluted in 0.55 M TRIS-HCl pH 8.1 containing DTT (0.02 M) for 30 min at room temperature (RT), followed by treatment with iodoacetamide (0.12 M) for 1 hour at RT. Alpha and beta chains were purified by gel filtration on Superose 12 (Pharmacia Biotech, Milan, Italy) in Fast Protein Liquid Chromatography (FPLC) and purity was assessed by SDS-PAGE in non-reducing conditions.
It was first characterised, by means of the Western-blotting technique, whether the TS-A12/22 antibody recognises the alpha or beta of subunit of the C5 complement component prepared as described in Materials. Briefly the two subunits were electrophoresed in separate wells and transferred on nitrocellulose membranes. A solution containing Tris 50 mM pH 7.6, 0.5 M NaCl and 4% skimmed powder milk was used to block non-specific sites for 1 hour at 37° C. […] The enzymatic reaction was developed with blue tetrazolium and 5-bromo-4-chlorine-3-indolil phosphate (SIGMA-ALDRICH®, 0.30 mg/ml) diluted in 0.1 M Tris-HCl pH 9.5 containing 0.1 M NaCl and 5 mM MgCl2. Rainbow RPN 756 ([…]™ Italy (a trademark of General Electric Healthcare Limited)) were used as molecular weight markers.

C5 = target: T2, C5 (Homo sapiens, UniProt P01031); assay: Hemolytic assay, classical pathway (EAC1-3b sheep erythrocytes); assay type: biochemical; conditions: 600 ng scFv, increasing amounts of C5, FIG. 4A
T2 construct: C5 alpha and beta subunits were obtained by incubating 50 μg of C5; purchased Quidel
T2 sequence (P01031 678-1676 limits assumed): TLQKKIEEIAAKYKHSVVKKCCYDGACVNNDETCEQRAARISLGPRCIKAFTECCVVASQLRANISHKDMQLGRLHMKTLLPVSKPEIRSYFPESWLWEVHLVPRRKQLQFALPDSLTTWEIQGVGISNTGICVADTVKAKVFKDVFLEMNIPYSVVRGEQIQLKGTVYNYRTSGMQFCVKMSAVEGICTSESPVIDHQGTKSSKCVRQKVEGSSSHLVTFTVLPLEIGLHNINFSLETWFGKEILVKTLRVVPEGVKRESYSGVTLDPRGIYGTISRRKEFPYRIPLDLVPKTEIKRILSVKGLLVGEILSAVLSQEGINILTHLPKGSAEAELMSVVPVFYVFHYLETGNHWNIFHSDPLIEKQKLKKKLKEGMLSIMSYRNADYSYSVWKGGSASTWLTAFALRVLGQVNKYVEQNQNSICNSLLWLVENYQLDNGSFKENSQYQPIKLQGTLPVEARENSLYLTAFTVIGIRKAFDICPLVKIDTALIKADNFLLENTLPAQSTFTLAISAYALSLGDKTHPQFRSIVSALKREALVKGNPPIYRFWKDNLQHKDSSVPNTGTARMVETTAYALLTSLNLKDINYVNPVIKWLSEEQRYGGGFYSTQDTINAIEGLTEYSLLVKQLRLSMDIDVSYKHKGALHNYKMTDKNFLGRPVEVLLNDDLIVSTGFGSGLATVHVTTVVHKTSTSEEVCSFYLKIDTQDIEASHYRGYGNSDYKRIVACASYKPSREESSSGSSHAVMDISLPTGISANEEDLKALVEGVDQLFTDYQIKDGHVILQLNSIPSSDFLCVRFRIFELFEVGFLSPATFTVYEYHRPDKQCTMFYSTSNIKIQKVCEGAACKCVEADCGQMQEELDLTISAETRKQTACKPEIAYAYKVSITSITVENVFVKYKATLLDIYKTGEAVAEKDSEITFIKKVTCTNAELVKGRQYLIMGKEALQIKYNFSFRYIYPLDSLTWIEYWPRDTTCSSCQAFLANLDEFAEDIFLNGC
T2 sequence (P01031 19-673 partner limits assumed): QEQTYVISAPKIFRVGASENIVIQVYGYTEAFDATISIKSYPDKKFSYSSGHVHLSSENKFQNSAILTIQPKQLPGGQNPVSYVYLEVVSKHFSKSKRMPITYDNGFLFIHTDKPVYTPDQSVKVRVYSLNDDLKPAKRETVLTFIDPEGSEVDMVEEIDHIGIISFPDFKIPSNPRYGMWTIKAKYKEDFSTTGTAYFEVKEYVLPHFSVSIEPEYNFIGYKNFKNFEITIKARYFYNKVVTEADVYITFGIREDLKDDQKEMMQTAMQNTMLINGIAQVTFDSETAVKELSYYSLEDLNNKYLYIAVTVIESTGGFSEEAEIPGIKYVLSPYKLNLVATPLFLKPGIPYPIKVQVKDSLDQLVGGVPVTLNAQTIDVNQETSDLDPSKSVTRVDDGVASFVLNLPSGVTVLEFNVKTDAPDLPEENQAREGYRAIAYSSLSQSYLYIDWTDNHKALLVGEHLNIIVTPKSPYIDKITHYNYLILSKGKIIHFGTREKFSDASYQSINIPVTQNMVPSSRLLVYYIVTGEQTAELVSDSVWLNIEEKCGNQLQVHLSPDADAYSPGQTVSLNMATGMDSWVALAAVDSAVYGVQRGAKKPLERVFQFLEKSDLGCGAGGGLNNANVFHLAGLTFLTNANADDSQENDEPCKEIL
Experimental: Values from spectrophotometric reading performed at 412 nm to measure inhibition of lysis of sheep erythrocytes coated with EAC1-3b, through the classical complement activation pathway (A Panel); or of rabbit erythrocytes in order to measure the alternative pathway of complement activation (B Panel). Increasing amounts of C5 were mixed with 600 ng of the scFv antibody of the invention with an unrelated scFv, or with GVBS in which the scFv of the invention were solubilised, as described in example 9. After incubation with serum lacking in C5, obtained from a patient with selective deficiency of this complement component, the percentage of hemolysis was measured compared to the 100% value obtained by lysing erythrocytes in an equal volume of distilled H2O and a blank obtained by resuspending eythrocytes in GBVS. Having assessed the characteristics of the inhibition of the classical activation pathway of factor C5 by the TS-A12/22 antibody, it was then verified whether there was inhibition also of the alternative pathway of C5 activation, and at which level. […] After incubation for 30 minutes at 37° C., the percentage of erythrocyte lysis was measured by comparison to a 100% value obtained by lysing erythrocytes with an equal volume of distilled of H2O and to a blank consisting of erythrocytes re-suspended in GBVS. […]

C3 = C3 (Homo sapiens, UniProt P01024); assay: Specificity on other complement components; assay type: binding
C3, sequence (P01024 23-1663): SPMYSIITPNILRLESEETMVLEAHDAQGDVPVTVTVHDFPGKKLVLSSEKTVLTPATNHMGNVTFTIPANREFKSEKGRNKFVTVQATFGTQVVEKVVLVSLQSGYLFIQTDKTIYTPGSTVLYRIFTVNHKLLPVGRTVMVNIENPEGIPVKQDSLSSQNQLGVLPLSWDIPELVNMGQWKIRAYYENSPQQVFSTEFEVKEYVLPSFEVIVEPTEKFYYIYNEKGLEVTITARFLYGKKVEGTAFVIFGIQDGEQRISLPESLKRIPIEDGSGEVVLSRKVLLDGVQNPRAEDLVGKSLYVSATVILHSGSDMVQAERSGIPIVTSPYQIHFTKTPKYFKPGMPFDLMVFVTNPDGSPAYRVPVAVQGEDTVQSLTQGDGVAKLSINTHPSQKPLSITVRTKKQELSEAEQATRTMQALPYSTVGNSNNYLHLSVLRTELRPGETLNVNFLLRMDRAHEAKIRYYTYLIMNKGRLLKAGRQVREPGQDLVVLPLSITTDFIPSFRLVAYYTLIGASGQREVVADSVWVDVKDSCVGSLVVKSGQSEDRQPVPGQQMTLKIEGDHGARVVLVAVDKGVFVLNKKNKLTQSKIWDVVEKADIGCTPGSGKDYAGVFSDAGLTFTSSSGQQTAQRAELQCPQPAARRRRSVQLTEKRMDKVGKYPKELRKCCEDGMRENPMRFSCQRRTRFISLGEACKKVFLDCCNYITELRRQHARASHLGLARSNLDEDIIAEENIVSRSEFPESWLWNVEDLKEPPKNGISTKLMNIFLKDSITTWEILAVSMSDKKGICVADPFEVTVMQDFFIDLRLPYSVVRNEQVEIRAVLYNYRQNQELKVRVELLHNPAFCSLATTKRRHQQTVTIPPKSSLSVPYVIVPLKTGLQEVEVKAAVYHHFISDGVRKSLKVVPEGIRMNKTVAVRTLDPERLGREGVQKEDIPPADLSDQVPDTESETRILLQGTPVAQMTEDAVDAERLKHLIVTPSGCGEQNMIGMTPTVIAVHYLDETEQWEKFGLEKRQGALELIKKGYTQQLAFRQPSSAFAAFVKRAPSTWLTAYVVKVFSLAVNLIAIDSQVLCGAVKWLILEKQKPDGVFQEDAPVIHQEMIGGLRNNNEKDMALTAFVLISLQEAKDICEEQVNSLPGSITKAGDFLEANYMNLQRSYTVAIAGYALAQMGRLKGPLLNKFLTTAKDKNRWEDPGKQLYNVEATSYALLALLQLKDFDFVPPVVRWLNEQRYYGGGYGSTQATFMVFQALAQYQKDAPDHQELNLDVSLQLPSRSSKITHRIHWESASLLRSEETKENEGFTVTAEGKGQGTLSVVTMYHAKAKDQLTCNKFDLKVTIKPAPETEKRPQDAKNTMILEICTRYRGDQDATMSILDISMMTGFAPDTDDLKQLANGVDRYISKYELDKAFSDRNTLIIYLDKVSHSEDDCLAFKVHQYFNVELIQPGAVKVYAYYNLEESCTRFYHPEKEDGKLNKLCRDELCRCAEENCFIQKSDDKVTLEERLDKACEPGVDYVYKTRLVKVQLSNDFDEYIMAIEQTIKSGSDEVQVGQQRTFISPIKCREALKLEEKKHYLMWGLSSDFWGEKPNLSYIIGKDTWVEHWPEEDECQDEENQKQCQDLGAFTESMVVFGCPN
Experimental: (§1) (The specificity of TS-A12/22 antibody was evaluated also on other components of the complement cascade, as for instance C3 and C4, which are structurally similar to C5, but cross-reactivity was not found).

C4 = assay: Specificity on other complement components; assay type: binding
Experimental: as §1

rat joint = assay: Rat model of antigen-induced (BSA) arthritis, intra-articular scFv; assay type: in vivo
Experimental: Polymorphonuclear Leukocytes (PMN), isolated from intra-articular wash out of rats with arthritis induced by instillation of BSA (mBSA), were incubated with antibody TS-A12/22 or with an unrelated antibody, as described in example 10.
Saline solution: control without induced arthritis; mBSA: BSA-induced arthritis, untreated; unrelated: BSA-induced arthritis, treated with unrelated scFv antibody; Ts-a12/22: BSA-induced arthritis, treated with the antibody of the invention.
Histological sections of joints from rats treated with intra-articular injection of saline (A), BSA (B), BSA with TS-A12/22 (C) and BSA with the unrelated antibody (D) were analysed by immunofluorescence for the presence of complement components C3 and C9, as described in example 10.
In order to test the effect of the TS-A12/22 antibody in vivo, the influx of PMN was measured in the rat joint injected with BSA, BSA and TS-A12/22 or BSA and unrelated antibody. […] Moreover the deposition of the C3 and C9 complement components was checked on a histological section of the joint of the back paw of treated rats, by immunofluorescence with specific antisera and fluorescein-conjugated secondary antibody (FIG. 7). […] It was thus confirmed that the TS-A12/22 antibody inhibits the complement cascade at a step intermediate between C3 and C9 and therefore at the level of the conversion of C5 to C5a+C5b.

T1 sequence (P01031 678-1676 limits assumed): as the sequence (P01031 678-1676 limits assumed) above

B1: TS-A12/22: anti-C5 scFv obtained from TS-A12 by VL chain shuffling; VH3/V-48 and Vλ3/V2-14; amino acid sequence SEQ ID NO:6 (protein, listed as Homo sapiens)
scFv: DIRMTQSPDSLAVSLGERATINCKSSQSVLYSSNNKNYLAWYQQKPGQPPKLLIYWASTRESGVPDRFSGSGSGTDFTLTISSLQAEDVAVYYCQQYYSTPQLTFGGRTKVDIKSGGSTITSYNVYYTKLSSSGTQVQLQQSEGGVVQPGRSLRLSCAASGFTFSSYGMNWVRQAPGKGLEWVSYISSSSSTIYYADSVKGRFTISRDNSKNTLYLQMNSLRAEDTAVYYCARGPGMDVWGQGTTVTVSS
C5 alpha chain
  recognition of C5 alpha sub-unit: recognises
C5
  inhibition of erythrocyte lysis through the classical pathway: inhibits
C3
  cross-reactivity with C3: not found
C4
  cross-reactivity with C4: not found
Rat joint; FIG. 7
  deposition of C3 in the joint (immunofluorescence): remained unchanged; also recorded: does not affect
  deposition of C9 in the joint (immunofluorescence): strongly inhibited; also recorded: significantly reduces
Rat joint; versus BSA or BSA and unrelated antibody, FIG. 6
  number of PMN in the joint wash out liquid: significantly reduced; also recorded: drastically reduced
